What was measured:
[1] = target: hERα ligand-binding domain (Homo sapiens, UniProt P03372 P03372:282-595); assay: EMSA; 100 nM protein, 2.5 nM RNA; conditions: tags: GST fusion, baculovirus/insect cells, Invitrogen PV4543, label: 32P-CTP internal
Description: Human ERα was incubated with ligands (40 nM to 5 μM E2 or OHT) or vehicle control (EtOH) at 37° C. for 10 min before addition of RNA. Regardless of the absence or presence of the ligands, hERα formed a complex with AptER-1 in the same way. In FIG. 12B, the ligand competition assays showing that the interaction between AptER-4 and hERα was not intervened by ligand-binding. Human ERα was incubated with 1 μM E2 or vehicle control (EtOH) before addition of AptER-4. Regardless of the absence or presence of the ligands, hERα formed a complex with AptER-4 in the same way. […] Proteins were 100 nM. In the presence of hERα, both aptamers were shifted. No binding activity to GST/hERα-LBD was detected.
Whether the aptamers bind to LBD was examined in two ways. One approach was an EMSA to directly examine whether the aptamers bound to the GST/hERα-LBD construct. The recombinant human ERα-LBD purchased from Invitrogen was expressed as a GST-tagged fusion protein in baculovirus-infected insect cells. It contains amino acid 282 to 595 of hERα, with a calculated molecular weight of 62.80 kDa protein. According to the manufacturer's instruction, the concentration of functional receptor was determined by quantification of estrodial, [6, 7-³H9(N)] receptor complexes using a hydroxyapatite (HAP) assay. Binding reactions were set up with 2.5 nM radiolabeled aptamers and 100 nM protein. […]

hERα DNA-binding domain [2] = target: T1, hERα DNA-binding domain (Homo sapiens, UniProt P03372 P03372:180-268); assay: DBD binding assay, method not specified; conditions: tags: N-terminal His6; E. coli BL21(DE3); label: 32P-CTP internal; predicted three-way junction with two long hairpins
T1 sequence (P03372 180-268, one chain of several): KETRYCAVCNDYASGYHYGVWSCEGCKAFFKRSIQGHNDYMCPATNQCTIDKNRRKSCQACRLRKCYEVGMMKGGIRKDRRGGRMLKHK

[3] = target: T2, Human estrogen receptor beta (hERβ) (Homo sapiens, UniProt Q92731 Q92731:1-530); assay: filter; affinity for hERβ too low to be determined; conditions: tags: none stated; baculovirus/insect cells; EMD4 Biosciences 330657; label: 32P-CTP internal; predicted three-way junction with two long hairpins
T2 sequence (Q92731 whole entry, one chain of several): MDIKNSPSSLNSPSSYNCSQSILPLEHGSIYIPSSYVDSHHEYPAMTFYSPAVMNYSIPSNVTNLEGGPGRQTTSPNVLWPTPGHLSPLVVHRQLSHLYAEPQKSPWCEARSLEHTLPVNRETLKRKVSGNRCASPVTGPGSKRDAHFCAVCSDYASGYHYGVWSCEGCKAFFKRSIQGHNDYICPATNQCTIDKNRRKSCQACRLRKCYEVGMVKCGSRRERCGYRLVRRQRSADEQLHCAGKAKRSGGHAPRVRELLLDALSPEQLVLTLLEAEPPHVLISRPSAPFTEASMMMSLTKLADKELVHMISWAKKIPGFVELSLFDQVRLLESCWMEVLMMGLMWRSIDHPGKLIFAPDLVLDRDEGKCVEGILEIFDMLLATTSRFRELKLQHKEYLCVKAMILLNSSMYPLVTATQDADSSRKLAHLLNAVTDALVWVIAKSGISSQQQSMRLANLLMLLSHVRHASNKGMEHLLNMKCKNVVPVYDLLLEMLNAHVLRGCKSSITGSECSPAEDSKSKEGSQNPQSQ

[4] = target: T3, Human estrogen receptor alpha (hERα), full-length, unliganded (Homo sapiens, UniProt P03372 P03372:1-595); assay: filter; same buffer, 37 C; Hill n>1; conditions: tags: none stated; baculovirus/insect cells; Invitrogen P2187 or EMD4 Biosciences 330655; label: 32P-CTP internal; predicted three-way junction with two long hairpins
T3 sequence (P03372 whole entry, one chain of several): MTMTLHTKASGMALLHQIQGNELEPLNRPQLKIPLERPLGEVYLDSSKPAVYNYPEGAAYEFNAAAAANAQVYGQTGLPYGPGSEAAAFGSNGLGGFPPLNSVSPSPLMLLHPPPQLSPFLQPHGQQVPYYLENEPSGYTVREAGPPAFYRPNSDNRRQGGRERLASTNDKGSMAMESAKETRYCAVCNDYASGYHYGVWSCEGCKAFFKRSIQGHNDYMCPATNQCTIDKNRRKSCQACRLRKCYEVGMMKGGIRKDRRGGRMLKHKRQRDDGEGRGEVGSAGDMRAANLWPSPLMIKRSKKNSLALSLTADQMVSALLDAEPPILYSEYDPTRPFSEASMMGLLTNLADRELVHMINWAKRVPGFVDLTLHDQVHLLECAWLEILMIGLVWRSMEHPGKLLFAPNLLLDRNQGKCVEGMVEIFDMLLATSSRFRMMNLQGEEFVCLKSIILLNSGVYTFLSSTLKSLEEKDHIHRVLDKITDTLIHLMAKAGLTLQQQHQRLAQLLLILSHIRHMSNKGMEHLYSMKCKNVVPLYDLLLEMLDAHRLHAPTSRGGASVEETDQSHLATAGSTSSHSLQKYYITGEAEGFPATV
Description: (§1) The dissociation constant (Kd) of the AptER-1, -2, -3, and -4 were measured using a nitrocellulose filter binding assay. A constant trace amount of [γ-³²P]-CTP incorporated RNA aptamer (˜0.1 nM) was titrated with increasing amounts of the target protein ranging from 5 to 150 nM. The binding activity at each concentration was determined as % binding, by calculating the radioactive signal of the RNA-protein complex retained on the filter as a percentage of the signal at the highest protein concentration (saturated) used. The assays were performed in triplicates for each aptamer. A binding curve was constructed using Sigma Plot 9.0.1, with average binding affinity (% binding) as a function of the protein concentration using a sigmoidal equation (Hill equation, 3 parameters). Apparent Kd was the protein concentration where half of the maximal binding activity was achieved, and were calculated from the data points by using Sigma Plot. […] The first 3 aptamers were isolated in in vitro selection I, and their affinity rank explains the relative abundance in the final selected library. More specifically, it is believed that AptER-1 dominated the final selected pool because it was the strongest binder. AptER-4 was the weakest binder, and would not have been easily identified in the selection I libraries.

hERα DNA-binding domain [5] = target: T1, hERα DNA-binding domain; assay: EMSA; also no binding in filter assay; conditions: tags: N-terminal His6; E. coli BL21(DE3); label: 32P-CTP internal
Description: No binding activity to RNase inhibitor (control) or DBD & RNase inhibitor was detected. The binding reactions were resolved on the same type of gel as above. […] End-radiolabeled ERE-50mer at 5 nM was mixed with 100× or 400× more concentrated unlabeled competitors ERE-50mer, AptER-1, -2 and -3 RNA or an early generation pool in hERα selection G1 before addition of hERα (40 nM). Only cold ERE-50mer disrupted radioactive ERE-hERα complex.
Class I aptamers bound with similar affinities to both subtypes of ER, which share the highest homology (96%) in the DBD. This raised the possibility that the target site of Class I aptamers was located within the DBD. Whether the aptamers bind to the DBD was tested in binding assays using a recombinant hERα-DBD. It was expressed as a His₆-tagged fusion protein in E. coli BL21 (DE3) and purified as described in the Materials and Methods. To verify its ERE-binding capability, a DNA EMSA was performed. DNA oligo ERE-50mer contains a GAAA tetra loop, which forces the oligo to form a hairpin. A copy of Xenopus laevis vitellogenin A2 ERE (5′-[…]-3′, SEQ ID NO: 73) was presented in the stem of a hairpin. […] However, in both EMSA (FIG. 11B) and filter-binding assay, no association was detected between AptER-1 and DBD. […]

[6] = target: T3, Human estrogen receptor alpha (hERα), …; assay: FP; filter-binding assay (nitrocellulose), 12 mM HEPES pH 7.6, 150 mM NaCl, 10 mM MgCl2, 37 C; Hill coefficient about 1; conditions: tags: none stated; baculovirus/insect cells; Invitrogen P2187 or EMD4 Biosciences 330655; label: 32P-CTP internal
Description: as §1

[7] = target: T2, Human estrogen receptor beta (hERβ); assay: filter; text prints hERα for this 26 nM value but context compares with hERβ (probable typo); conditions: tags: none stated; baculovirus/insect cells; EMD4 Biosciences 330657; label: 32P-CTP internal
Description: as §1, with “A” for “The dissociation constant (Kd) of the AptER-1, -2, -3, and -4 were measured using a nitrocellulose filter binding assay. A”, “libraries. […]” for “libraries.”

hERα ligand-binding domain, sequence (P03372 282-595, one chain of several): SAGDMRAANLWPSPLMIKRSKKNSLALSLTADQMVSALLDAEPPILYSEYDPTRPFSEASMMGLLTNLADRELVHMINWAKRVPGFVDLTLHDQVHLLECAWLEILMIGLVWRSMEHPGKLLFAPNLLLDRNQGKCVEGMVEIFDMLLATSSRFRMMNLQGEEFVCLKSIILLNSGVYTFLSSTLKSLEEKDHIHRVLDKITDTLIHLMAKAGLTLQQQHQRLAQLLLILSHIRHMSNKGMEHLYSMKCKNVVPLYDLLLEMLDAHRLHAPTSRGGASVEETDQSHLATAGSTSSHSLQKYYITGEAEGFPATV

B1: AptER-4 (ssRNA)
RNA: GGGAGAAUUCAACUGCCAUCUAGGCCACAGCCGGCGGUCGAACACCAGAGGGCGACUUUGGGUAGUCGAGUAUUAAGUACUACAAGCUUCUGGACUCGGU
binding result ([1]; predicted three-way junction with two long hairpins): no binding | binding result (hERα DNA-binding domain [2]): no binding | binding result [3]: no binding | Kd [4]: ~45 nM

B2: AptER-1 (clone B63) (ssRNA)
RNA: GGGAGAAUUCAACUGCCAUCUAGGCCCACAGUUCAGAGGCACCGCGAACAAAACGCAAGACAGAGUGCCGACAAGAGCACUACAAGCUUCUGGACUCGGU
binding result [1]: no binding | binding result (hERα DNA-binding domain [5]): no binding | Kd [6]: ~16 nM | Kd [7]: ~26 nM
